The series in a line: label from the status in PepcDB records.

For the sequence “MVLKAFFPTCCVSTDSGLLVGRWVPEQSSAVVLAVLHFPFIPIQVKQLLAQVRQASQVGVAVLGTWCHCRQEPEESLGRFLESLGAVFPHEPWLRLCRERGGTFWSCEATHRQAPTAPGAPGEDQVMLIFYDQRQVLLSQLHLPTVLPDRQAGATTASTGGLAAVFDTVARSEVLFRSDRFDEGPVRLSHWQSEGVEASILAELARRASGPICLLLASLLSLVSAVSACRVFKLWPLSFLGSKLSTCEQLRHRLEHLTLIFSTRKAENPAQLMRKANTVASVLLDVALGLMLLSWLHGRSRIGHLADALVPVADHVAEELQHLLQWLMGAPAGLKMNRALDQVLGRFFLYHIHLWISYIHLMSPFVEHILWHVGLSACLGLTVALSLLSDIIALLTFHIYCFYVYGARLYCLKIHGLSSLWRLFRGKKWNVLRQRVDSCSYDLDQLFIGTLLFTILLFLLPTTALYYLVFTLLRLLVVAVQGLIHLLVDLINSLPLYSLGLRLCRPYRLADKPTALQPRGAHLPPPQLWLPPQALLGRPVPQAVPWGAHLPLEAERGQAGLRELLARLAPPHGHSQPSALPGWHQLSWRMSCALWTLLCAPEHGRPCYHTLGLEVIGSEQMWGWPARLAALHHWHCLPWDPLPTCCGHHGGEHSNPRCPEHCPMPTLCTQVQRVRPPQQPQVEGWSPWGLPSGSALAVGVEGPCQDEPPSPRHPLAPSAEQHPASGGLKQSLTPVPSGPGPSLPEPHGVYLRMFPGEVAL”, the protein production entry is recorded as “failed”.

As to “MVLLLDYWDQWAEAYRINGKSINTVYRYKLFRKHLKSRFDGRKLNSIRPIEWQKFINDFAAGKDRKEKTTRKRPRERSKDIVTKMNSYVRGMVKAAINERILFSDFTFGTKTSGVRSSGKVKVLEHHHHHH”, the protein production entry is “failed”.

“MVLLMAVSLSFAQMKNVKEAKSIASDVKPNFNQAEKLINEAIKNPETKDLPDTWDVAGFIQKRFIEEERDKKGVLKQPFDTLKAYNSILKMFEYYTKCDDLAQVPNEKGKIKNKYRKANASTILVERPNLINGGIQFFNLDKNKEALQFFATYVESASYPMLAEQNLAKTDTLLAQIAYYATLAADRVGDKDAIIKYAPAALDDKDGGKFAMQLMADAYKAKGDTAAWVKSLEEGILKFPGNDYFFANLVDYYTSSNQASKAMEFADRMLSTDANNKLYLYVKAYLYHNMKEYDNAIEFYKKAIAADPEYAEAYSNVGLVYLMKAQDYADKATTDINDPKYAEAQATVKKFYEEAKPFYEKARALKPDQKDLWLQGLYRVYYNLNMGPEFEEIDKMMK”: the protein production result was “failed”.

In the case of “MVLSKTASKSDDSIHSTFASRYVRNSISRFEIPKNSIPKEAAYQIINDELKFDGNPRLNLASFVTTWMEPECDKLMMESINKNNVEMDQYPVTTDLQNRCVNMIARLFNAPLGDGEAAIGVGTVGSSEAVMLAGLAFKRQWQNKRKALGLPYDRPNIVTGANIQVCLEKFARYFEVELKEVKLREGYYVMDPDKAVEMVDENTICVVAILGSTLTGEFEDVKLLNDLLVEKNKKTGWDTPIHVDAASGGFIAPFLYPDLEWDFRLPLVKSINVSGHKYGLVYAGIGWVVWRTKTDLPDELIFHINYLGADQPTFTLNFSKGSSQVIAQYYQLIRLGFEGYRNVMDNCRENMMVLRQGLEKTGRFNIVSKENGVPLVAFSLKDSSRHNEFEVAEMLRRFGWIVPAYTMPADAQHVTVLRVVIREDFSRTLAERLVADFEKVLHELDTLPARVHAKMASGKVNGVKKTPEETQREVTAYWKKFVDTKTDKNGVPLVASITNQ”, the protein production result is recorded as “failed”.

“MVLTKKYDKLGHILLNVFIVFCTFEVFIKGVLTLQQESSSGVNAIKIGILLFMIFAIVLKGKIKGMTTKIKGIMFIYLVFFIVLGLKILSINQMSDITGWLSDNNNLNYIFSFVCFIIILNIDIKRESVINTLIVSSTVVMVISFIFFIKNNYYGLAAPDIIQAYSMGFLNKTRMLSIFASPNHAGLYFVMVYLIVDFRGQKNLAMLFKLYKFLLIVCIMLTLSRTAIGILLLYIIIKIIRSKNAKSVVRFGIISLMVVLIGITLWIAISKYNVYFFSASYIKADNRWIKWQVAIEYIKKYWAIGAPFNIKVQMYAYVNSAITSVEFSDNLFLEIASRFGVPLIACIFIFMIKNLRRAFNEKKITDITKILVFIISSITTGSIHFTIPMILFIVYCDKFD”: the protein production entry is recorded as “failed”.

Consider “MVLVLDFGSQYTRLIARRLRELRAFSLILPGDAPLEEVLKHRPQALILSGGPRSVFDPDAPRPDPRLFSSGLPLLGICYGMQLLAQELGGRVERAGRAEYGKALLTRHEGPLFRGLEGEVQVWMSHQDAVTAPPPGWRVVAETEENPVAAIASPDGRAYGVQFHPEVAHTPKGMQILENFLELAGVKRDWTPEHVLEELLREVRERAGKDRVLLAVSGGVDSSTLALLLAKAGVDHLAVFVDHGLLRLGEREEVEGALRALGVNLLVVDAKERFLKALKGVEDPEEKRKIIGREFVAAFSQVARERGPFRFLAQGTLYPDVIESAGGHGAAKIKSHHNVGGLPEDLEFELLEPFRLLFKDEVRELALLLGLPDTLRLRHPFPGPGLAVRVLGEVTEERLEILRRADDIFTSLLREWGLYEKVAQALAVLTPVRSVGVAGDERKYGYVLALRAVTTEDFMTADWARLPLEFLDEAARRITRRVPEIGRVVYDLTSKPPATIEWE”, for which the protein production entry is reported as “not failed”.

Consider “MVLYFLSSIIIAPIKTGDKAPQVDECCLKTVSDLTFFTNNEKYIWPVPDFCVRMELLAFEAIPQLSKKIIEDIPGAYQGCPRMCKVKFKKNHLKGFTLDTIYAELGTTHVIDCIVTPRIEEQELMKTIMEEEDDDDVADVVVESWLKRHKEGRLIMFDELYQQDIQTLKITSSR”, for which the protein production entry is “failed”.

In the case of “MVNDIKKTALAVVTALITAVSAQLSFKIGPVPYTMQNFGVMLSGFLLGPYYGLLSMAIYLALIAFSLPIAAGGGGLGVLIGPTAGFLYGFLISSFLAGVFRRAIWREGSRREVLMLWLSTLVASMPIYLLGFFVFYNFAMIDEKLLIRSESAVRAFNLSFSSPTMVIFAATVLIFLPQDFFVDHLLAVLVFRYVHRMLNERGVEVD”, the protein production result is reported as “failed”.

Take “MVNEYKAHSSFILKVVITLIGYWIASILAIIIYSMFFKIETNTFLLCLLLPTPIIWFNILIGMGLTYRCMENLTIYDKHKLWCVFVRDLTLTILATILATLTTMELYQIEHPLKPIEFVFIVGLVLIVGFTIITTLIIKYLKIIKNLKKISKN”: the protein production result was “failed”.

On to “MVNFDCVIEELDEKTKEMLRVIDEDADSFAARAEMYYKKRPELIAMVEEFYRSHRSLAERYDLLRPSSVHKHGSDSESHEKSSTCDESSWSEACETHEEYAESEIDNGESKWVDESEIDGIVEEIEPSEVVYSEGNGNSEMMKIEIERLREENKVYSEMVREKDEEKREAIRQMSVAIQMLKEENSELKKRVTNTVVARRNKEGGDSQRKQQMWKPFEFKKIKLEGLWGKGFGNWALPNTDSTSKELMTL”, for which the protein production result was “failed”.

For “MVNIFWFSLAVIIYSYFIYPFILLIFSAVKQAISDTRYLWKKSQRRVVDKDNLPPVSIIIAAYNEESCIKARVENLLSLDYPQDKLTILIGSDGSQDKTAEILTSFDAVNLKVHIFEKNRGKMSVLNDLVEQVNSDYIVFSDANTHFNKNTIEYLVRHFNHDNIGAVCGELHLVDVDSGDNKDNIYWRYEQVLKFHEARLNALQGANGAIYAIRKELFIPLPANTIVDDFQIAMNVAKQGFRLIYDPEAIAIEEIAPNLQAEEGRRVRIGLGNYQALFTMAWALNPLLGWRFIAYISHKVCRWFVPHLMLITLISNLLLISNPLYQLLFIGQILFYSVAFYGIKKQQKRQKVSSIIGIIAFFVSMNIALMRGFIRYFSSNVQGTWERTTR”, the protein production entry is “failed”.

“MVNLMKNEKEINGKKSHFFSLSESRFMRFLGGNDLIYALIALVLLGIVIFIFDKISYVFQPFIIVFNTIAAPIIVSLVLFYLFNPIVNMMERYRIPRLLGITIIYVAIIGIITLIVNLLIPIIGSQIESFIKNTPNYLHKITRSLDKLNNNTILSGYMGQVNEWLESAQKKIPSMVSDYSDGFGSKLATFAEAVANIGIVIGTTPFVLFFMLKDGHKFKDYTTKIMPPKFRKDFHDLLEKMSVQVGSYIQGQIIVSFCIGLLLFIGYSIIGLKYALVLASIAAVTSVVPYLGPTIAISPAIVIAIITSPLMLLKLAVVWTLVQFFEGHFISPNVMGKTLKIHPLTIIFILLCAGNLMGIVGVIIGIPLYAVLKVLVSHIFMLFKRRYNRYYGNDAGEYTITEEEKGIKQ”: the protein production entry is given as “failed”.

In the case of “MVNPTISDDLFAMIAKKVADKSWLDLKPLIRSGTRGRDIVYRPDVLKDANIYSLCRVPDDFQVGGGHNPTGPQGEGRNRPFFKRCLLANNPTAVYNEAIRVLIHETDINGALKLMQRHAPVRADATIVCAIIFICAGYEWN”, the protein production result is given as “not failed”.

For the origin of these results see a protein production outcome set (Wang et al. 2014).
